Measured values published in PMC12607895 (2025).

B1: CD46 (receptor)
chain: CEEPPTFEAMELIGKPKPYYEIGERVDYKCKKGYFYIPPLATHTICDRNHTWLPVSDDACYRETCPYIRDPLNGQAVPANGTYEFGYQMHFICNEGYYLIGEEILYCELKGSVAIWSGKPPICEKVLCTPPPKIKNGKHTFSEVEVFEYLDAVTYSCDPAPGPDPFSLIGESTIYCGDNSVWSRAAPECKVVKCRFPVVENGKQISGFGKKFYYKATVMFECDKGFYLDGSDTIVCDSNSTWDPPVPKCLKVLPPSSTKPPALSHSVSTSSTTKSPASSASGPRPTYKPPVSNYPGYPKPEEGILDSLD

Legend:
Experiment in all cases: SPR
[1] = target: HAdV-D56 fiber knob (human adenovirus D56 (HAdV-D56))
[2] = target: HAdV-D37 hexon (human adenovirus D37 (HAdV-D37))
[3] = target: B1
[4] = target: HAdV-D113 fiber knob (human adenovirus D113 (HAdV-D113))
[5] = target: HAdV-B11 hexon (human adenovirus B11 (HAdV-B11))
[6] = target: HAdV-D113 hexon (human adenovirus D113 (HAdV-D113))

Binder | Kd [3] | other results
B1 |  | Kd [1]: 150 nM; Kd [2]: 3090 nM
HAdV-D26 hexon (natural protein, Source, isoform and limits not given; soluble extracellular domain assumed; N/O-glycosylated; amine-coupled to CM5 chip) ATPSMMPQWAYMHIAGQDASEYLSPGLVQFARATDTYFSLGNKFRNPTVAPTHDVTTDRSQRLTLRFVPVDREDTTYSYKARFTLAVGDNRVLDMASTYFDIRGVLDRGPSFKPYSGTAYNSLAPKGAPNPSQWETKEKQGTTGGVQQEKDVTKTFGVAATGGINITNQGLLLGTDETAENGKKDIYADKTFQPEPQVGEENWQENEAFYGGRALKKDTKMKPCYGSFARPTNEKGGQAKFKPVNEGEQPKDLDIDFAYFDVPGGSPPAGGSGEEYKADIILYTENVNLETPDTHVVYKPGTSDNSSEINLVQQSMPNRPNYIGFRDNFVGLMYYNSTGNMGVLAGQASQLNAVVDLQDRNTELSYQLLLDSLGDRTRYFSMWNSAVDSYDPDVRIIENHGVEDELPNYCFPLNGTGTNSTYQGVKITNGNDGAEESEWEKDDAISRQNQICKGNVYAMEINLQANLWKSFLYSNVALYLPDSYKYTPANVKLPANTNTYEYMNGRVVAPSLVDAYINIGARWSLDPMDNVNPFNHHRNAGLRYRSMLLGNGRYVPFHIQVPQKFFAIKNLLLLPGSYTYEWNFRKDVNMILQSSLGNDLRVDGASVRFDSVNLYATFFPMAHNTASTLEAMLRNDTNDQSFNDYLSAANMLYPIPAKATNVPISIPSRNWAAFRGWSFTRLKTKETPSLGSGFDPYFVYSGSIPYLDGTFYLNHTFKKVSIMFDSSVSWPGNDRLLTPNEFEIKRSVDGEGYNVAQCNMTKDWFLVQMLSHYNIGYQGFHVPEGYKDRMYSFFRNFQPMSRQVVDEINYKDYKAVTLPFQHNNSGFTGYLAPTMRQGQPYPANFPYPLIGQTAVPSVTQKKFLCDRVMWRIPFSSNFMSMGALTDLGQNMLYANSAHALDMTFEVDPMDEPTLLYLLFEVFDVVRVHQPHRGVIEAVYLRTPFSAGNATT | 4240 nM | 
HAdV-D56 hexon (natural protein, Source, isoform and limits not given; soluble extracellular domain assumed; N/O-glycosylated; amine-coupled to CM5 chip) ATPSMMPQWAYMHIAGQDASEYLSPGLVQFARATDTYFSLGNKFRNPTVAPTHDVTTDRSQRLTLRFVPVDREDTTYSYKARFTLAVGDNRVLDMASTYFDIRGVLDRGPSFKPYSGTAYNSLAPKGAPNSSQWEQKKANAGEQKETHTYGVAPMGGENITISGLQIGTDTTNGKQDPIYANKLYQPEPQVGEENWQETEAFYGGRALKKETKMKPCYGSFARPTNEKGGQAKLRDPEKSQEDFDIDLAFFDTPGGTLTGGGTEYKADIVMCTENVNLETPDTHVVYKPGKDDDSSEINLVQQSMPNRPNYIGFRDNFVGLMYYNSTGNMGVLAGQASQLNAVVDLQDRNTELSYQLLLDSLGDRTRYFSMWNSAVDSYDPDVRIIENHGVEDELPNYCFPLDGSGTNAAYEGVKVKNGQDGDQESEWEKDTNVADRNQICKGNIYAMEINLQANLWKSFLYSNVALYLPDSYKYTPANVTLPTNTNTYEYMNGRVVAPSLVDAYINIGARWSLDPMDNVNPFNHHRNAGLRYRSMLLGNGRYVPFHIQVPQKFFAIKNLLLLPGSYTYEWNFRKDVNMILQSSLGNDLRVDGASVRFDSVNLYATFFPMAHNTASTLEAMLRNDTNDQSFNDYLSAANMLYPIPAKATNVPISIPSRNWAAFRGWSFTRLKTKETPSLGSGFDPYFVYSGSIPYLDGTFYLNHTFKKVSIMFDSSVSWPGNDRLLTPNEFEIKRSVDGEGYNVAQCNMTKDWFLVQMLSHYNIGYQGFHVPEGYKDRMYSFFRNFQPMSRQVVDEINYKDYKAVTLPFQHNNSGFTGYLAPTMRQGQPYPANFPYPLIGQTAVPSVTQKKFLCDRVMWRIPFSSNFMSMGALTDLGQNMLYANSAHALDMTFEVDPMDEPTLLYLLFEVFDVVRVHQPHRGVIEAVYLRTPFSAGNATT | 6730 nM | 
HAdV-D37 fiber knob (domain or fragment, Source, isoform and limits not given; soluble extracellular domain assumed; N/O-glycosylated; amine-coupled to CM5 chip) WNPKYDTRTLWTTPDTSPNCTIAQDKDSKLTLVLTKCGSQILANVSLIVVAGKYHIINNKTNPKIKSFTIKLLFNKNGVLLDNSNLGKAYWNFRSGNSNVSTAYEKAIGFMPNLVAYPKPSNSKKYARDIVYGTIYLGGKPDQPAVIKTTFNQETGCEYSITFNFSWSKTYENVEFETTSFTFSYIAQE | 2700 nM | 
HAdV-B11 fiber knob (domain or fragment, trimer; knob limits by convention (last shaft residues to C-terminus) Source, isoform and limits not given; soluble extracellular domain assumed; N/O-glycosylated; amine-coupled to CM5 chip) GLTFNSNNICIDDNINTLWTGVNPTEANCQIMNSSESNDCKLILTLVKTGALVTAFVYVIGVSNNFNMLTTHRNINFTAELFFDSTGNLLTRLSSLKTPLNHKSGQNMATGAITNAKGFMPSTTAYPFNDNSREKENYIYGTCYYTASDRTAFPIDISVMLNRRAINDETSYCIRITWSWNTGDAPEVQTSATTLVTSPFTFYYIREDD | 1.14 nM | 
HAdV-C5 fiber knob (domain or fragment, trimer; limits by convention of the Ad5 knob structure 1KNB Source, isoform and limits not given; soluble extracellular domain assumed; N/O-glycosylated; amine-coupled to CM5 chip) TGAITVGNKNNDKLTLWTTPAPSPNCRLNAEKDAKLTLVLTKCGSQILATVSVLAVKGSLAPISGTVQSAHLIIRFDENGVLLNNSFLDPEYWNFRNGDLTEGTAYTNAVGFMPNLSAYPKSHGKTAKSNIVSQVYLNGDKTKPVTLTITLNGTQETGDTTPSAYSMSFSWDWSGHNYINEIFATSSYTFSYIAQE | 130 nM | 
CD46 (receptor) CEEPPTFEAMELIGKPKPYYEIGERVDYKCKKGYFYIPPLATHTICDRNHTWLPVSDDACYRETCPYIRDPLNGQAVPANGTYEFGYQMHFICNEGYYLIGEEILYCELKGSVAIWSGKPPICEKVLCTPPPKIKNGKHTFSEVEVFEYLDAVTYSCDPAPGPDPFSLIGESTIYCGDNSVWSRAAPECKVVKCRFPVVENGKQISGFGKKFYYKATVMFECDKGFYLDGSDTIVCDSNSTWDPPVPKCLKVLPPSSTKPPALSHSVSTSSTTKSPASSASGPRPTYKPPVSNYPGYPKPEEGILDSLDVWVIAVIVIAIVVGVAVICVVPYRYLQRRKKKGTYLTDETHREVKFTSL |  | Kd [4]: 130 nM; Kd [5]: 210 nM; Kd [6]: 4190 nM
